Data taken from paper PMC8964761.

Tests used:
FITC conjugated ATF = experiment: high-content fluorescence imaging of FITC-ATF on 293T cells (FITC/mRuby3 intensity ratio); details: FITC-ATF for 1 h; uPAR-mRuby3 expressing 293T cells; parent: est. 0.41; read off a plot
dimeric suPAR (human) [1] = target: dimeric suPAR (human) (UniProt Q03405); experiment: SEC; suPAR dimer mixed with excess ATF, 30 min at room temperature; complex purified on Superdex 200 10/300 (20 mM Tris pH 7.4, 150 mM KCl) and quantified by SDS-PAGE
dimeric suPAR (human) [2] = target: dimeric suPAR (human) (UniProt Q03405); experiment: SPR; Biacore T200; suPAR monomer or dimer captured on anti-uPAR antibody immobilised on a CM5 chip; ATF (0.14-33.3 nM) or scuPA (0.54-44.4 nM) flowed over; 10 mM HEPES, 150 mM NaCl, 3 mM EDTA, 0.005% P-20, pH 7.4, 20 °C; 1:1 Langmuir fit

Sequence of UniProt Q03405 (Q03405 23-299): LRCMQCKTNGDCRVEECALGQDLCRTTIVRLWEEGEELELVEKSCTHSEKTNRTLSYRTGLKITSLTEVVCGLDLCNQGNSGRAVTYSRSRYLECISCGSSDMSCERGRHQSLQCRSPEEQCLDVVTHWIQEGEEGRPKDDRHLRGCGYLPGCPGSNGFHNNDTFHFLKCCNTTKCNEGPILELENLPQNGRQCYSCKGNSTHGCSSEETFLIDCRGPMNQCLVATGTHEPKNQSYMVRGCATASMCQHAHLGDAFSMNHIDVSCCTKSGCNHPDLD

Row | Substance | response (FITC conjugated ATF) | stoichiometry N (ATF molecules per uPAR dimer) (dimeric suPAR (human) [1]) | Kd (dimeric suPAR (human) [2]) [nM]
1 | uPAR^WT fused with mRuby3 (suPAR-mRuby3-GPI) (from UniProt Q03405) H47C; N259C | 0.27 | – | –
2 | uPAR^WT fused with mRuby3 (suPAR-mRuby3-GPI) (from UniProt Q03405) E49P | 0.43 | – | –
3 | amino terminal fragment of uPA (ATF) (domain or fragment) | – | 2 | 0.672
